According to the supplement of paper PMC6755084:

What follows are sequences tested on F1*sub RNA substrate (template-directed ligation) (assay: fraction ligated after 30 min (ligated reads / total reads); higher = more ligase activity; sequences stand for … in GAGACCGCAACTGAAAAGTTGT…AGTTCTGCACGTAGAAGCAAAAGGC). Conditions: 42 °C.
Description: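 Chip-synthesised pool of F1* ligase ribozyme variants (all single and double substitutions, single, double and triple deletions in the catalytic core and GAA bulge, plus designed variants) was transcribed with T7 and reacted as a pool with excess substrate F1*sub for 30 min at 42 C in 50 mM EPPS pH 8.5, 25 mM MgCl2. Ligated and unligated bands were separated by PAGE, barcoded by RT and deep sequenced; fraction ligated = ligated reads / total reads per variant, relative activity = FL / FL of wild type (0.826). Sequences are the DNA template of the ribozyme.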

First: TATCACTTGTCTAAGACACTTTATGGGTTGA [3d1885]
Second: ATCCTTGTCGTAAGACACTTTGGATGGGTTA [3d84]
The fraction ligated of the first is lower: 0.171 for the first, 0.218 for the second.

First: TATCACTTGTCGAAGACCTTTGGATGGGTTA [3d1948]
Second: TTCACTGTCGTAAGACACTTGGATGGGTTGA [3d348]
The fraction ligated of the first is higher: 0.773 for the first, 0.762 for the second.

Compared with TACACTTTCGTAAGACACTTTGGATGGTTGA [3d598], TTCACTGCGTAAGACACTTTGGATGGGTTGA [3d338] is higher in fraction ligated: 0.0486 for the first, 0.782 for the second.

Compared with “TATCACTTGTCGTAAACACTTTGATGGGTTA [3d2092]”, TATACTTGTCGTAAACACTTGGATGGGTTGA [3d886] is higher in fraction ligated: 0.0833 for the first, 0.227 for the second.

First: TATACTTGTGTAAGCACTTTGGATGGGTTGA [3d832]
Second: TATCACTTGTCGTAAGACACTTTATGGGTTA [3d2258]
The fraction ligated of the first is higher: 0.776 for the first, 0.0282 for the second.

Compared with ATCACTTGTCGAGACACTTTGGATGGGTTGA [3d185], “TATCACTTGTGAAGACACTTTGGATGGGTTG [3d1730]” is higher in fraction ligated: 0.757 for the first, 0.854 for the second.

Going from “TATCACTTGTCGTAAGCACTTTGGTGGGTTG [3d2144]” to “TATCACTTGTCAGACACTTTGGATGGGTTGA [3d1810]”, the fraction ligated rises from 0.0518 to 0.824.

Going from TTCACTTGTCGTAACACTTTGGATGGGTTGA [3d430] to “TATCACTTTCTAAGACACTTTGGATGGGTTGA [2d148]”, the fraction ligated rises from 0.728 to 0.794.

Going from ATCACTTGTCGTAAGACACTGGATGGGTTGA [3d253] to TTCACTTGTCGTAAGACACTTTGGAGGGTTGA [2d43], the fraction ligated falls from 0.701 to 0.227.

Going from TACATTGTCGTAAGAACTTTGGATGGGTTGA [3d556] to TATCCTGTCGTAAGACACTTTGGATGGTTGA [3d965], the fraction ligated rises from 0.0064 to 0.038.

Going from TACACTTGTCGTAAGAACTTTGGATGGGTTG [3d699] to “GGTATCACTTGTCGTAAGACACTTTGGATGTTGA [s36]”, the fraction ligated falls from 0.00593 to 0.000954.

Compared with TTCACTTGTCGAAGACACTTTGGTGGGTTGA [3d424], “TATCACTTGTCGAAGACATTTGGAGGGTTGA [3d1953]” is lower in fraction ligated: 0.0265 for the first, 0.021 for the second.

Going from “TATCACTTTCGAAGACACTTTGGATGGGTTA [3d1504]” to “TATCACTTGTCGTAGACACTTTGGAGGGTTA [3d2053]”, the fraction ligated falls from 0.382 to 0.0985.

Compared with “TATCACTTGCGTAAGACACTTTGGTGGTTGA [3d1695]”, “TATCATTGTCTAAGCACTTTGGATGGGTTGA [3d1190]” is higher in fraction ligated: 0.0605 for the first, 0.765 for the second.

Compared with “TATCCTTGTCTAAGACACTTTGGATGGTTGA [3d1026]”, ATCACTTGTCGTAGACACTTTGATGGGTTGA [3d205] is higher in fraction ligated: 0.047 for the first, 0.715 for the second.

First: TTCACTGTCGTAAGCACTTTGGATGGGTTGA [3d344]
Second: ATACTTGTCGTAAGACATTTGGATGGGTTGA [3d59]
The fraction ligated of the first is higher: 0.8 for the first, 0.446 for the second.

First: TATACTTGTCGTAAGACACTTTGGTGGGTTGA [2d85]
Second: TATCACTTGTCGAAGACACTTTGGATGGGTTG [2d220]
The fraction ligated of the first is lower: 0.0569 for the first, 0.856 for the second.

Going from “TATCACTTGCGAGACACTTTGGATGGGTTGA [3d1613]” to “TATCACTTGTCGTAGACCTTGGATGGGTTGA [3d2021]”, the fraction ligated falls from 0.821 to 0.79.

Compared with TACACTTGTCTAAGCACTTTGGATGGGTTGA [3d635], TTACTTGTCGTAAGACACTTTGATGGGTTGA [3d292] is lower in fraction ligated: 0.142 for the first, 0.0869 for the second.

Compared with “TATCACTGTGTAAGACACTTTGGATGGTTGA [3d1355]”, “TATCACTTTCGTAAGACACTTGGAGGGTTGA [3d1564]” is lower in fraction ligated: 0.216 for the first, 0.085 for the second.

Compared with TTACTTGTCGTAGACACTTTGGATGGGTTGA [3d285], ATCACTTGTCGTAAACACTTTGGATGGGTTGA [2d13] is higher in fraction ligated: 0.00592 for the first, 0.78 for the second.

Going from “TATCACTTGTCTAAGACCTTTGGATGGGTTG [3d1870]” to TTCACTTGTCGTAAGAACTTTGGAGGGTTGA [3d466], the fraction ligated falls from 0.755 to 0.0901.

Compared with “TATCACTGTCTAAGACACTTTGGATGGGTTG [3d1371]”, “TATCACTTGTCTAGACACTTTGGTGGGTTGA [3d1831]” is lower in fraction ligated: 0.8 for the first, 0.195 for the second.

Compared with TTCACTTGTCGTAAGAACTTTGGTGGGTTGA [3d465], “TATCACTGTCGTAAGACATTTGATGGGTTGA [3d1434]” is higher in fraction ligated: 0.019 for the first, 0.79 for the second.

Going from “TATCACTTGTCGAAGCACTTGGATGGGTTGA [3d1928]” to “TATCACTTGTGTAAGACATTTGATGGGTTGA [3d1780]”, the fraction ligated falls from 0.747 to 0.494.

Compared with TATCCTTTCGTAAGACCTTTGGATGGGTTGA [3d975], TATACTGTCGTAAGACACTTTGGAGGGTTGA [3d792] is lower in fraction ligated: 0.771 for the first, 0.042 for the second.

First: TACACTTGTGTAAGACACTTTGATGGGTTGA [3d626]
Second: TATCACTGTCGTAAGCATTTGGATGGGTTGA [3d1410]
The fraction ligated of the first is lower: 0.0413 for the first, 0.797 for the second.

Going from TATACTGCGTAAGACACTTTGGATGGGTTGA [3d779] to TATACTTGTCGTAGACCTTTGGATGGGTTGA [3d874], the fraction ligated falls from 0.779 to 0.616.

Compared with “TATCACTTGTGAAGACACTTTGGATGGGTTA [3d1729]”, “TATCACTTGTGAAGACACTTTGGTGGGTTGA [3d1726]” is lower in fraction ligated: 0.823 for the first, 0.102 for the second.

Compared with TTCACTTTCGTAAGACACTTTGGATGGTTGA [3d368], TATACTTGCGTAAACACTTTGGATGGGTTGA [3d816] is higher in fraction ligated: 0.0816 for the first, 0.464 for the second.

Compared with “TATCACTTGTCTAAGCACTTTGGTGGGTTGA [3d1851]”, “TATCATTGTGTAAGCACTTTGGATGGGTTGA [3d1176]” is higher in fraction ligated: 0.108 for the first, 0.86 for the second.

Compared with “TATCACTTGTCGTAAGACACTTTGGATGGTTG [2d297]”, “TATCACTTGTCGTAAGACACTTTGGATGGTT [3d2281]” is lower in fraction ligated: 0.531 for the first, 0.024 for the second.

First: TATCACTTGTCGTAAGACACTGGATGGTTGA [3d2235]
Second: TATCACTTGTTAAGACACTTTGGATGGGTTGA [2d179]
The fraction ligated of the first is lower: 0.0538 for the first, 0.859 for the second.

First: TATCACTTGTCGTAAGACATTTGATGGGTTG [3d2219]
Second: TATCACTTTCGTAAGACACTTTGGAGGGTTA [3d1579]
The fraction ligated of the first is higher: 0.098 for the first, 0.04 for the second.

Going from “TATCACTTGTGTAAGACCTTTGGAGGGTTGA [3d1775]” to “TATCACTTTCTAAGACATTTGGATGGGTTGA [3d1485]”, the fraction ligated rises from 0.137 to 0.818.

Going from “TATCACTTTCGTAAGACACTTTGAGGGTTGA [3d1570]” to TTCACTTGTCGTAAGAATTTGGATGGGTTGA [3d462], the fraction ligated rises from 0.0593 to 0.693.

Going from “TATCCTTGTCGTAAGACACTTGGATGGGTTA [3d1102]” to TACACTTGTCGTAAGACACTGGATGGGTTGA [3d714], the fraction ligated falls from 0.402 to 0.191.

Going from TAACTTGTCGTAAGACACTTGGATGGGTTGA [3d521] to “TATCACTTGCGTAAGAACTTTGGATGGGTTG [3d1666]”, the fraction ligated rises from 0.266 to 0.833.

Going from “TATCACTTGTCGTGCACTTTGGATGGGTTGA [3d1982]” to “TATCACTTGTCGTAAACACTTTGGATGGGTT [3d2103]”, the fraction ligated falls from 0.783 to 0.628.

First: TATCACTTTGTAAGACACTTTGGATGGGTTGA [2d147]
Second: TACACTTGTCGTAAGCATTTGGATGGGTTGA [3d684]
The fraction ligated of the first is higher: 0.838 for the first, 0.453 for the second.

Going from ATCACTTGTCGTAAGCACTTTGGATGGTTGA [3d228] to “TATCACTTGCGTAAACACTTTGGAGGGTTGA [3d1645]”, the fraction ligated falls from 0.195 to 0.0516.

Compared with “TATCACTTGCGTAGACATTTGGATGGGTTGA [3d1631]”, “TATCATTGTCGTAAGCACTTTGGATGGGTTA [3d1245]” is lower in fraction ligated: 0.821 for the first, 0.474 for the second.

Going from “TATCACTTGTCGTAGCACTTTGGAGGGTTGA [3d2009]” to TACACTTGTCGTAAGACACTTGGATGGGTTGA [2d62], the fraction ligated rises from 0.101 to 0.183.

First: TATCACTTGTCGTAAGACATTTGGAGGGTTGA [2d272]
Second: ATCCTGTCGTAAGACACTTTGGATGGGTTGA [3d67]
The fraction ligated of the first is lower: 0.015 for the first, 0.683 for the second.

Compared with “TATCATTGTCGTAAGACACTTGGATGGGTTG [3d1275]”, TATACTTGTCGAAGACACTTTGGATGGTTGA [3d867] is lower in fraction ligated: 0.8 for the first, 0.0528 for the second.

First: TATCACTTGTCGTAAACCTTTGGTGGGTTGA [3d2069]
Second: TATCACTTGTCGTAAGCACTTTGGTGGGTTA [3d2143]
The fraction ligated of the first is higher: 0.182 for the first, 0.0888 for the second.

Compared with “TATCACTTGCGTAAGACCTTTGGTGGGTTGA [3d1669]”, “TATCCTTGTCGTAAGACACTTTGATGGGTTA [3d1108]” is higher in fraction ligated: 0.137 for the first, 0.644 for the second.

Going from “TATCATTGTCGTAGACACTTTGGATGGGTTA [3d1225]” to “TATCACTTGCGTAGACCTTTGGATGGGTTGA [3d1630]”, the fraction ligated rises from 0.595 to 0.817.

First: TATCACTTGCGTAAGACACTTTGGAGGGTTG [3d1700]
Second: TATCACTTGTCGTAAGACACTTTGGGGGTTG [3d2272]
The fraction ligated of the first is higher: 0.0669 for the first, 0.0105 for the second.

First: TTCACTTGTCTAAGACACTTTGGATGGTTGA [3d413]
Second: TATCACTTGCGTAAACACTTTGGATGGGTTG [3d1648]
The fraction ligated of the first is lower: 0.661 for the first, 0.795 for the second.

Going from TTACTTGTCGTAAGCACTTTGGATGGGTTGA [3d287] to “TATCACTTTCGTAAACACTTGGATGGGTTGA [3d1522]”, the fraction ligated rises from 0.00788 to 0.778.

Going from “TATCACTGTCGAAGACACTTTGGATGGGTTA [3d1383]” to “TATCACTGTCTAAGACACTTTGGATGGGTTA [3d1370]”, the fraction ligated rises from 0.75 to 0.762.

Compared with “TATCACTTGTCGTAGAATTTGGATGGGTTGA [3d2013]”, TTCACTTGTCTAAGACACTTTGATGGGTTGA [3d410] is lower in fraction ligated: 0.832 for the first, 0.312 for the second.

Going from TATCCTTGTGTAAGACACTTTGGATGGGTTGA [2d93] to TTCACTTGCGTAAGACATTTGGATGGGTTGA [3d379], the fraction ligated falls from 0.792 to 0.768.
